Assay results: US20190167771, “CONTROL ANGIOGENESIS BY REGULATING PHOSPHORYLATION OF SERYL-tRNA SYNTHETASE (SerRS)” (The Scripps Research Institute, published 2019)

Molecular target: SerRS (seryl-tRNA synthetase) wild type (Homo sapiens, UniProt P49591 SEQ:1-514)
Assay: EMSA; 20 mM Tris pH 8.0, 60 mM KCl, 5 mM MgCl2, poly(dG-dC), room temperature
Settings: tags: C-terminal His6; label: 5'-32P
Protocol: The 27 bp DNA oligonucleotides corresponding to SerRS binding site on the VEGFA promoter (5′ GGCGGGGCGGAGCCATGCGCCCCCCCC 3′ (SEQ ID NO: 36)) were synthesized, annealed, and [³²P]-labeled at the 5′ end by T4 DNA kinase (New England Biolabs, Ipswich, Mass., USA) before desalting using a sephadex G-25 spin column (GE Healthcare, Pittsburgh, Pa., USA). The labeled oligonucleotides (0.08 pmol) were incubated with recombinant SerRS at indicated concentrations in binding buffer (20 mM Tris-HCl, pH 8.0, 60 mM KCl, 5 mM MgCl₂, 0.1 mg ml⁻¹ BSA, 10 ng μl⁻¹ poly (dG-dC), 1 mM DTT) for 30 min at room temperature. The samples were loaded to 5% native polyacrylamide gel (17.5 cm in length) and underwent electrophoresis at 250 V in running buffer (25 mM Tris, pH 8.3, 190 mM glycine). Afterwards, the gel was dried and examined by autoradiography.
The effect of hypoxia on the interaction of SerRS with VEGFA promoter was also explored. As detected by electrophoresis mobility shift assay (EMSA), the direct binding between SerRS and a ³²P-labeled 27-bp DNA fragment previously identified as the SerRS binding site from the VEGFA promoter in Shi et al. 2014 was attenuated by the phosphor-mimicking mutant SerRS^{S101D/S241D} (FIG. 2E).

Sequence of SerRS (seryl-tRNA synthetase) wild type (P49591 whole entry): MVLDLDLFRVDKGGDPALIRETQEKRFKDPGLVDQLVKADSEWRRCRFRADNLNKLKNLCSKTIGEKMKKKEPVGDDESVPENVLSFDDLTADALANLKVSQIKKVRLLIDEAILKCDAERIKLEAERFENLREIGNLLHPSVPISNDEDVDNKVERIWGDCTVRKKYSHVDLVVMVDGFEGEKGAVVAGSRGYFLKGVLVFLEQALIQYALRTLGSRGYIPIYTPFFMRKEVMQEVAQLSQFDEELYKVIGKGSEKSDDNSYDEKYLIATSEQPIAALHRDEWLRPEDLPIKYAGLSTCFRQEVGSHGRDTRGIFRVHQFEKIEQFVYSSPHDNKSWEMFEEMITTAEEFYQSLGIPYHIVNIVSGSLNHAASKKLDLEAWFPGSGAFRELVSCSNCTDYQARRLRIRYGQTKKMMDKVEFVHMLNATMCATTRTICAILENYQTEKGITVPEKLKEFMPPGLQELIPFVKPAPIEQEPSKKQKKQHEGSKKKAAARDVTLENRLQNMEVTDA

B1: VEGFA promoter 27-bp SerRS site (dsDNA)
DNA 1: GGCGGGGCGGAGCCATGCGCCCCCCCC
DNA 2: GGGGGGGGCGCATGGCTCCGCCCCGCC
binding result: binds
